Results as given in patent publication US7611713.
Like-named read-outs stand apart in the source and are kept apart here.

What was measured:
[1] = biological target: HLA-A*0301 (human)
[2] = biological target: HLA-A*0201 (human)
[3] = biological target: HLA-DR7 (DRB1*0701) (human); test: competition with standard peptide for purified HLA-DR, relative to standard
[4] = biological target: HLA-DR1 (DRB1*0101) (human); test: as above
[5] = biological target: HLA-DR4w4 (DRB1*0401) (human); test: as above
[6] = biological target: HLA-DR5w11 (DRB1*1101) (human); test: as above
[7] = biological target: HLA-DRw53 (DRB4*0101) (human); test: as above
[8] = biological target: HLA-DR1 (DRB1*0101) (human); test: HLA class II peptide binding assay, ratio to standard peptide; conditions: remark: other sources report otherwise
[9] = biological target: HLA-DR4w4 (DRB1*0401) (human); test: as above; conditions: remark: other sources report otherwise
[10] = biological target: HLA-DR5w11 (DRB1*1101) (human); test: as above; conditions: remark: other sources report otherwise
[11] = biological target: HLA-DR7 (DRB1*0701) (human); test: as above; conditions: remark: other sources report otherwise
[12] = biological target: HLA-B*0701 (as printed in the head of Table XXII) (human); test: competitive inhibition of radiolabeled standard peptide binding to purified HLA
[13] = biological target: HLA-A*1101 (human)
[14] = biological target: HLA-DR2w2β2 (DRB5*0101) (human)
[15] = biological target: HLA-DR5w11 (DRB1*1101) (human)
[16] = biological target: HLA-DR6w19 (DRB1*1302) (human)
[17] = biological target: HLA-DR2w2β1 (DRB1*1501) (human); test: HLA class II peptide binding assay, ratio to standard peptide
[18] = biological target: HLA-DR3 (DRB1*0301) (human); test: as above; conditions: remark: other sources report otherwise
[19] = biological target: HLA-DR4w15 (DRB1*0405) (human); test: as above; conditions: remark: other sources report otherwise
[20] = biological target: HLA-DR6w19 (DRB1*1302) (human); test: as above; conditions: remark: other sources report otherwise
[21] = biological target: HLA-DR1 (DRB1*0101) (human)
[22] = biological target: HLA-DR7 (DRB1*0701) (human)
[23] = biological target: HLA-DR2w2β1 (DRB1*1501) (human)
[24] = biological target: HLA-A*3101 (human)
[25] = biological target: HLA-A*3301 (human)
[26] = biological target: HLA-B*0702 (human); test: competition with radiolabeled standard peptide for purified HLA, gel filtration
[27] = biological target: HLA-A*1101 (human); remark: listed apart in the source
[28] = biological target: HLA-A*6801 (human)
[29] = biological target: HLA-B*5101 (human); test: competition with radiolabeled standard peptide for purified HLA, gel filtration; conditions: remark: other sources report otherwise
[30] = biological target: HLA-B*5401 (human); test: as above; conditions: remark: other sources report otherwise
[31] = biological target: HLA-A*0201 (human); test: competitive inhibition of radiolabeled standard peptide binding to purified HLA
[32] = remark: other sources report otherwise

B1: HBV NUC 30 peptide … (peptide)
peptide: LLDTASALYR
modifications: not checked
- binding affinity ratio (IC50 of standard peptide / IC50 of test peptide) [1]: 0.005

B2: HBV ENV 260 peptide LLDYQGML (peptide)
peptide: LLDYQGML
modifications: not checked
- binding affinity ratio (relative to standard peptide) [2]: 0.0004

B3: … (peptide)
peptide: DLNLGNLNVSIPWTH
modifications: not checked
- binding affinity ratio (IC50 of standard peptide / IC50 of test peptide) [3]: 0.001

B4: … (peptide)
peptide: AEDLNLGNLNVSIPW
modifications: not checked
- binding affinity ratio (IC50 of standard peptide / IC50 of test peptide) [4]: 0.0001
- binding affinity ratio (IC50 of standard peptide / IC50 of test peptide) [5]: -0.0007
- binding affinity ratio (IC50 of standard peptide / IC50 of test peptide) [6]: -0.0002
- binding affinity ratio (IC50 of standard peptide / IC50 of test peptide) [3]: -0.0003

B5: … (peptide)
peptide: ASKLCLGWLWGMDID
modifications: not checked
- binding affinity ratio (IC50 of standard peptide / IC50 of test peptide) [4]: 0.0002
- binding affinity ratio (IC50 of standard peptide / IC50 of test peptide) [6]: -0.0002
- binding affinity ratio (IC50 of standard peptide / IC50 of test peptide) [7]: 0.001

B6: HBV NUC 141 peptide … (peptide)
peptide: STLPETTVV
modifications: not checked
- binding affinity ratio (IC50 of standard peptide / IC50 of test peptide) [2]: 0.0019

B7: HBV ENV 207 … (peptide 20.0120) (peptide)
peptide: DSWWTSLNF
modifications: not checked
- binding affinity ratio [1]: 0.0006

B8: HBV peptide … (peptide)
peptide: NAPILSTLPETTVVR
modifications: not checked
- binding affinity ratio (IC50 of standard peptide / IC50 of test peptide) [8]: 0.0009
- binding affinity ratio (IC50 of standard peptide / IC50 of test peptide) [9]: -0.0007
- binding affinity ratio (IC50 of standard peptide / IC50 of test peptide) [10]: -0.0002
- binding affinity ratio (IC50 of standard peptide / IC50 of test peptide) [11]: 0.0005

B9: HBV POL 771 peptide … (peptide)
peptide: ILRGTSFVY
modifications: not checked
- binding affinity ratio (IC50 of standard peptide / IC50 of test peptide) [1, 32]: 0.044

B10: MAGE3 196 (peptide)
peptide: MPKAGLLII
modifications: not checked
- IC50 [12]: 940 nM

B11: HBV POL 153 peptide KAGILYKR (peptide)
peptide: KAGILYKR
modifications: not checked
- binding affinity ratio (IC50 of standard peptide / IC50 of test peptide) [13]: -0.0002

B12: HBV POL 357 peptide … (peptide)
peptide: RVTGGVFLV
modifications: not checked
- binding affinity ratio (IC50 of standard peptide / IC50 of test peptide) [2, 32]: 0.0041

B13: … (peptide)
peptide: VGLLGFAAPFTQCGY
modifications: not checked
- binding affinity ratio (IC50 of standard peptide / IC50 of test peptide) [14]: 0.0008
- binding affinity ratio (IC50 of standard peptide / IC50 of test peptide) [15]: -0.0004
- binding affinity ratio (IC50 of standard peptide / IC50 of test peptide) [16]: -0.0001

B14: HBV ENV 175 peptide … (peptide)
peptide: LLVLQAGFF
modifications: not checked
- binding affinity ratio (IC50 of standard peptide / IC50 of test peptide) [1]: 0.0006

B15: … (peptide)
peptide: IVGLLGFAAPFTQCG
modifications: not checked
- binding affinity ratio (IC50 of standard peptide / IC50 of test peptide) [4]: 0.02
- binding affinity ratio (IC50 of standard peptide / IC50 of test peptide) [5]: -0.0007
- binding affinity ratio (IC50 of standard peptide / IC50 of test peptide) [6]: -0.0002
- binding affinity ratio (IC50 of standard peptide / IC50 of test peptide) [3]: 0.0009

B16: HBV peptide … (peptide)
peptide: LAQFTSAICSVVRRA
modifications: not checked
- binding affinity ratio (IC50 of standard peptide / IC50 of test peptide) [17]: 0.0065
- binding affinity ratio (IC50 of standard peptide / IC50 of test peptide) [18]: -0.0009
- binding affinity ratio (IC50 of standard peptide / IC50 of test peptide) [19]: 0.028
- binding affinity ratio (IC50 of standard peptide / IC50 of test peptide) [10]: 0.0076
- binding affinity ratio (IC50 of standard peptide / IC50 of test peptide) [20]: 0.001
- binding affinity ratio (IC50 of standard peptide / IC50 of test peptide) [11]: 0.028

B17: … (peptide)
peptide: RDLLDTASALYREAL
modifications: not checked
- binding affinity ratio (IC50 of standard peptide / IC50 of test peptide) [21, 32]: 0.0001
- binding affinity ratio (IC50 of standard peptide / IC50 of test peptide) [22, 32]: 0.077

B18: HBV NUC 99 peptide … (peptide 1142.03) (peptide)
peptide: QLLWFHISCL
modifications: not checked
- binding affinity ratio (IC50 of standard peptide / IC50 of test peptide) [2]: 0.006

B19: HBV POL 581 peptide … (peptide)
peptide: SLNFMGYVI
modifications: not checked
- binding affinity ratio (IC50 of standard peptide / IC50 of test peptide) [2]: 0.0038

B20: HBV POL 569 peptide … (peptide)
peptide: HLNPNKTKR
modifications: not checked
- binding affinity ratio (IC50 of standard peptide / IC50 of test peptide) [1]: 0.0025

B21: … (peptide)
peptide: VGNFTGLYSSTVPVF
modifications: not checked
- binding affinity ratio (IC50 of standard peptide / IC50 of test peptide) [23]: 0.01
- binding affinity ratio (IC50 of standard peptide / IC50 of test peptide) [22, 32]: 0.56

B22: HBV ENV 254 peptide LIFLLVLL (peptide)
peptide: LIFLLVLL
modifications: not checked
- binding affinity ratio (relative to standard peptide) [2]: 0.0025

B23: … (peptide)
peptide: WPKFAVPNLQSLTNL
modifications: not checked
- binding affinity ratio (IC50 of standard peptide / IC50 of test peptide) [21]: 0.0007
- binding affinity ratio (IC50 of standard peptide / IC50 of test peptide) [15]: 0.0002
- binding affinity ratio (IC50 of standard peptide / IC50 of test peptide) [22]: 0.0008

B24: HBV X 133 peptide VLGGCRHK (peptide)
peptide: VLGGCRHK
modifications: not checked
- binding affinity ratio (IC50 of standard peptide / IC50 of test peptide) [24]: -0.0005
- binding affinity ratio (IC50 of standard peptide / IC50 of test peptide) [25]: -0.0009

B25: HBV POL 398 peptide … (peptide)
peptide: VPNLQSLTNL
modifications: not checked
- binding affinity ratio (IC50 of standard peptide / IC50 of test peptide) [26]: 0.0006

B26: HBV NUC 175 peptide … (peptide)
peptide: TTVVRRRGR
modifications: not checked
- binding affinity ratio (IC50 of standard peptide / IC50 of test peptide) [27]: 0.0005
- binding affinity ratio (IC50 of standard peptide / IC50 of test peptide) [24]: 0.25
- binding affinity ratio (IC50 of standard peptide / IC50 of test peptide) [25]: 0.14
- binding affinity ratio (IC50 of standard peptide / IC50 of test peptide) [28]: 0.0095

B27: HBV POL 393 peptide … (peptide)
peptide: WPKFAVPNL
modifications: not checked
- binding affinity ratio (IC50 of standard peptide / IC50 of test peptide) [26, 32]: 0.0054
- binding affinity ratio (IC50 of standard peptide / IC50 of test peptide) [29]: 0.0016
- binding affinity ratio (IC50 of standard peptide / IC50 of test peptide) [30]: 0.0015

B28: HBV NUC 45 peptide … (peptide)
peptide: LSFLPSDFF
modifications: not checked
- binding affinity ratio (IC50 of standard peptide / IC50 of test peptide) [1]: 0.0006

B29: HBV POL 752 peptide … (peptide)
peptide: LLGCAANWI
modifications: not checked
- binding affinity ratio (relative to standard peptide) [2]: 0.0011

B30: HBV peptide … (peptide)
peptide: PLPIHTAELLAACFA
modifications: not checked
- binding affinity ratio (IC50 of standard peptide / IC50 of test peptide) [8]: 0.0046
- binding affinity ratio (IC50 of standard peptide / IC50 of test peptide) [11]: -0.0003

B31: HBV NUC 60 peptide … (peptide)
peptide: LDTASALYR
modifications: not checked
- binding affinity ratio (IC50 of standard peptide / IC50 of test peptide) [13]: -0.0002

B32: HBV POL 768 peptide … (peptide)
peptide: YVPSALNPA
modifications: not checked
- binding affinity ratio (IC50 of standard peptide / IC50 of test peptide) [31]: 0.0039

B33: HBV ENV 330 peptide … (peptide)
peptide: SVRFSWLSLL
modifications: not checked
- binding affinity ratio (IC50 of standard peptide / IC50 of test peptide) [2]: 0.0004
